Broadly, the Kd is the free concentration of one partner at which half of the binding sites on the other are occupied at equilibrium, for simple one-to-one binding. A low value points to higher affinity.

Bridge positions count the residues as written; N and C are the ends. Ends that are not written are not given here.

In assay [1] the target is T1, cyclo[E-LYLAYPAH-K] (synthetic construct, lactam 1-10).
T1 chain: ELYLAYPAHK
The experiment in a line: resin adsorption isotherm.

Assay [2] has as its target T2, cyclo[E-LYLAYPAH-K] (synthetic construct, lactam 1-10).
T2 chain: ELYLAYPAHK
As to the kind of experiment: yeast surface titration.

B1: YAP WW domains 165-271 (protein)
chain: FEIPDDVPLPAGWEMAKTSSGQRYFLNHIDQTTTWQDPRKAMLSQMNVTAPTSPPVQQNMMNSASGPLPDGWEQAMTQDGEIYYINHKNKTTSWLDPRLDPRFAMNQ
For B1, the Kd in assay [1] is 2640 nM; in assay [2] it was 680 nM.
